According to US20110046207:

Biological target: T1, biotinylated human D-C5a (mirror-image C5a) (Homo sapiens) (UniProt P01031)
T1 sequence: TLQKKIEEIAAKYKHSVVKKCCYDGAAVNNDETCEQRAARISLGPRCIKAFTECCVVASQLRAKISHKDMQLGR
Experiment: pulldown

| Sequence | Kd (37 C, 1 mM MgCl2, 1 mM CaCl2) | further results |
| --- | --- | --- |
| GCUGAACACGCCGCGUAGGACCCAAUGGGUAGAAUGGGCAGC [179-A3-015] |  | Kd (reference for type C ranking): > 7.2 nM |
| GUGCUUGUCCGAUUGGCGGCACCCUUGCGGGACUGGGGAGUAC [172-D7-002] |  | Kd (six base pair terminal helix): 108 nM |
| GUGCUGGGUUCGGACGUGGCAUGUUCCUUGAUAAACGGUUGCCAGCAC [182-A8] | 3.2 nM |  |
| GUGCUGCGUUCGGACGUGGCAUGUUCCUUGACAAACGGUUGGCAGCAC [182-C5] | 2.2 nM |  |
| AGCGUGCUCGUCCGAUUGGCGGCACCCUUGCGGGACUGGGGAGUACGCU [172-D7-003] |  | Kd (U to C at 3' end of 5'-terminal stretch): 372 nM |
| GCUGGGCGUGUUUACUUGCUUAAUAGGGGGCCCAGC [185-H3-001] | 5 nM |  |
| AGCGUGCUUGUCCGAUUGGCGGCACCCUUGCGGGACUGGGGAGUACGCU [172-D7-000] | 30 nM |  |
| GUGCUGAACACGCCGCGUAGGACUUCAAUGGAGUAGAAUGGGCAGCAC [179-A3] | 7.2 nM |  |
| GUACUGCGUUCGGACGUGGCAUGUUCCUUGACAAACGGUUGGCAGUAC [182-E5] | 2.4 nM |  |
